{"source": "patent US20220324960A1", "about": "(KINDRED BIOSCIENCES, published 2022)", "binders": {"B1": {"name": "Caninized VH-VL M14 chimeric antibody (caninized VH of M14 fused to human IgG1 heavy chain and caninized VL of M14 fused to human kappa constant light chain) (antibody, V domains shown)", "VH": "EVQLVESGPSLVKPGGSLRLTCSVTGDSITSGYWNWIRKFPGNKLEYMGYISYSGITDYNPSLKSRITISRDTSKNQYYLQLNSVTTEDTATYYCARYGNYGYAMDYWGQGTSVTVSS", "VL": "DIVMTQSPASLSVSLGQRATISCRASESVDTYGNSFMHWYQQKPGQSPKLLIYRASNLESGIPARFGGSGSGTDFTLTIDPVQADDVATYYCQQSYEDPWTFGGGTKLEIK", "notes": "Chimeric: VH fused to human IgG1 heavy chain, VL fused to human kappa constant light chain; also called analyte 1; caninized VH-VL M14 antibody control"}, "B2": {"name": "cmVH2 + cmVL3 chimeric antibody (antibody, human IgG1, V domains shown)", "VH": "B1 VH with N35K, G99P", "VL": "B1 VL with N34R, Q93H", "notes": "also called analyte 4"}, "B3": {"name": "cmVH3 + cmVL2 chimeric antibody (antibody, human IgG1, V domains shown)", "VH": "B1 VH with N35K, G99A", "VL": "B1 VL with N34R, Q93Y", "notes": "also called analyte 5"}, "B4": {"name": "cmVH3 + cmVL3 chimeric antibody (antibody, human IgG1, V domains shown)", "VH": "B1 VH with N35K, G99A", "VL": "B1 VL with N34R, Q93H", "notes": "also called analyte 6"}, "B5": {"name": "cmVH2 + cmVL2 chimeric antibody (antibody, human IgG1, V domains shown)", "VH": "B1 VH with N35K, G99P", "VL": "B1 VL with N34R, Q93Y", "notes": "also called analyte 3"}, "B6": {"name": "cmVH1 + cmVL1 chimeric antibody (antibody, human IgG1, V domains shown)", "VH": "B1 VH with N35K", "VL": "B1 VL with N34R", "notes": "also called analyte 2"}}, "note": "Positions count from the first letter of the chain named.", "data": [{"biological_target": "T1, Canine IL31 (canine)", "T1 chain": "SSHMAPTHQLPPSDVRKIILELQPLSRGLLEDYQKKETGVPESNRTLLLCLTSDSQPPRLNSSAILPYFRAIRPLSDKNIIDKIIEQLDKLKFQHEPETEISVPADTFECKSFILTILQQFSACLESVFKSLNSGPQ", "test": "SPR, BIAcore 8K, Protein A sensor chip", "description": "Chimeric antibodies composed of different combinations of cmVH1, cmVH2, or cmVH3 fused to human IgG1 heavy chain and cmVL1, cmVL2, and cmVL3 fused to human kappa constant light chain were generated. Caninized VH of M14 (SEQ ID NO: 3) fused to human IgG1 heavy chain and caninized VL of M14 (SEQ ID NO: 4) fused to human kappa constant light chain was also generated. Affinity of canine IL31 to the different chimeric antibodies was measured using a BIAcore 8K, as described in Table 3 below: […]", "units": {"Kd": "nM", "koff": "s⁻¹", "kon": "M⁻¹ s⁻¹"}, "values": [{"binder": "B1", "Kd": 2.18, "koff": 0.000523, "kon": 240000}, {"binder": "B2", "Kd": 0.868, "koff": 0.000162, "kon": 186000}, {"binder": "B3", "Kd": 0.9, "koff": 0.000168, "kon": 187000}, {"binder": "B4", "Kd": 0.858, "koff": 0.000185, "kon": 216000}, {"binder": "B5", "Kd": 0.914, "koff": 0.000159, "kon": 174000}, {"binder": "B6", "Kd": 0.8, "koff": 0.000182, "kon": 228000}]}]}
